Biological target: T1, ZBTB48 ZnF10-11-C (Homo sapiens, UniProt P10074 548-620)
T1 sequence: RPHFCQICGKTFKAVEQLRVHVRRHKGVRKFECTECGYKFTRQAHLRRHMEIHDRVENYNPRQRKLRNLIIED
Assay: X-ray crystallography; ZnF11 contacts G10G11G12; R614 contacts G12 and C8T9 of other strand; Pull-down: 150 mM NaCl, 50 mM Tris-HCl pH 7.5, 5 mM MgCl2, 0.5% Igepal CA-630, 1 mM DTT, 20 ug salmon sperm DNA, 4 C 2 h; crystals: 0.2 M imidazole malate pH 8.5, 20% PEG 4K, 20 C
Conditions: protein: recombinant; tags: GST removed by TEV; 5' overhang 1 nt at both ends, 15 bp

B1: CIITA e.2 crystal duplex (dsDNA)
DNA 1: CACAAGTGAGGGATCA
DNA 2: GTGATCCCTCACTTGT
binding result: binds

— paper PMC11649694, “ZBTB48 is a priming factor regulating B-cell-specific CIITA expression”
